Test results reported in patent US20210171598A1, “PEPTIDE HORMONE WITH ONE OR MORE O-GLYCANS” (priority 2017, published 2021).
No end group written: not given here. *: point of attachment. diST = diST O-glycan, CC(=O)N[C@@H]1[C@@H](O[C@@H]2O[C@H](CO)[C@H](O)[C@H](O[C@]3(C(=O)O)C[C@H](O)[C@@H](NC(C)=O)[C@H]([C@H](O)[C@H](O)CO)O3)[C@H]2O)[C@@H](O)[C@@H](CO[C@]2(C(=O)O)C[C@H](O)[C@@H](NC(C)=O)[C@H]([C@H](O)[C@H](O)CO)O2)O[C@@H]1*; code T = T O-glycan (Galβ1-3GalNAc), CC(=O)N[C@@H]1[C@@H](O[C@@H]2O[C@H](CO)[C@H](O)[C@H](O)[C@H]2O)[C@@H](O)[C@@H](CO)O[C@@H]1*; ST = sialylated T O-glycan

What was measured:
male Sprague Dawley rats = experiment: Acute cardiovascular and renal actions of i.v. infusion in anesthetized rats; format: in vivo; conditions: rat
Source text: The protocol is outlined in FIG. 9A.
Rats were then subjected to vessel and bladder cannulation for peptide infusion, BP measurement, blood sampling and urine collection. A polyethylene (PE)-5G tube catheter was placed into the jugular vein for inulin, peptide intravenous infusion. The carotid artery was cannulated with a PE-50 tube catheter for BP measurement (Sonometrics, London, Ontario, Canada) and blood sampling. The bladder was accessed and cannulated with a PE-50 tube catheter for passive urine collection. After completion of the above procedural set up, a 45 min equilibration period was performed that included continuous IV inulin and saline infusion. After the 45 min equilibration period, baseline (Time==Q min) parameters were recorded and one blood sampling (0.7 ml) was performed. The inulin and saline infusion was replaced by a continuous intravenously (i.v.) infusion of equimolar ANP-Ser19/ST or ANP-Ser25/ST for 60 min. The infusion rate was weight adjusted and equals weight*0.7/6000 ml/min. After 60 min infusion (Time=60 min), another blood sampling (0.7 ml) was conducted. […] Urine was collected at the end of the infusion (Time=60 min) and the study (Time=90 min). Urinary sodium was measured with pHOx Ultra (Nova Biomedical, Waltham, Mass.). Urine flow (UV) and urinary sodium excretion (UNaV) were calculated as urine volume or sodium clearance per min, Inulin concentrations were measured with enthrone method and inulin clearance was used for GFR quantification. Urinary cGMP and ANP excretion rate was calculated based on raw values obtained in the urine and UV.

neprilysin (NEP) = neprilysin (NEP) (Homo sapiens, UniProt P08473); experiment: In vitro degradation by neprilysin, MALDI-TOF time course; conditions: 37° C., MALDI-TOF
Method: (§1) Many peptide hormones are destined for endocrine circulation where they are rapidly degraded with half-lives reaching only a few minutes^6-8.
(§2) For enzymatic degradation assays using either NEP or DPP-IV (R&D systems, UK), an enzyme titration was carried out to ensure full degradation within one hour of reaction time.
(§3) MALDI-TOF-MS was performed on a Bruker Autoflex instrument (Bruker Daltonik GmbH, Bremen, Germany) by mixing the quenched aliquots with a saturated solution of α-Cyano-4-hydroxycinnamic acid in ACN/H2O/TFA (70:30:0.1) at a ratio 1:1 on a target steel plate and mass-spectra were acquired in linear mode.
Reactions were performed in 50 mM Tris, 0.05% Brij-35, pH 9 (Neprilysin), or 50 mM Tris, 20 mM NaCl, pH 7.5 (IDE) and incubated at 37° C.

[1] = target: dipeptidyl peptidase IV (DPP-IV) (Homo sapiens, UniProt P27487); experiment: In vitro degradation by DPP-IV, MALDI-TOF time course
Method: as §1, §2, §3

NPR-A receptor = target: T1, NPR-A receptor (UniProt P16066 33-1061, limits assumed); experiment: cell-based or functional assay
T1 sequence (looked up): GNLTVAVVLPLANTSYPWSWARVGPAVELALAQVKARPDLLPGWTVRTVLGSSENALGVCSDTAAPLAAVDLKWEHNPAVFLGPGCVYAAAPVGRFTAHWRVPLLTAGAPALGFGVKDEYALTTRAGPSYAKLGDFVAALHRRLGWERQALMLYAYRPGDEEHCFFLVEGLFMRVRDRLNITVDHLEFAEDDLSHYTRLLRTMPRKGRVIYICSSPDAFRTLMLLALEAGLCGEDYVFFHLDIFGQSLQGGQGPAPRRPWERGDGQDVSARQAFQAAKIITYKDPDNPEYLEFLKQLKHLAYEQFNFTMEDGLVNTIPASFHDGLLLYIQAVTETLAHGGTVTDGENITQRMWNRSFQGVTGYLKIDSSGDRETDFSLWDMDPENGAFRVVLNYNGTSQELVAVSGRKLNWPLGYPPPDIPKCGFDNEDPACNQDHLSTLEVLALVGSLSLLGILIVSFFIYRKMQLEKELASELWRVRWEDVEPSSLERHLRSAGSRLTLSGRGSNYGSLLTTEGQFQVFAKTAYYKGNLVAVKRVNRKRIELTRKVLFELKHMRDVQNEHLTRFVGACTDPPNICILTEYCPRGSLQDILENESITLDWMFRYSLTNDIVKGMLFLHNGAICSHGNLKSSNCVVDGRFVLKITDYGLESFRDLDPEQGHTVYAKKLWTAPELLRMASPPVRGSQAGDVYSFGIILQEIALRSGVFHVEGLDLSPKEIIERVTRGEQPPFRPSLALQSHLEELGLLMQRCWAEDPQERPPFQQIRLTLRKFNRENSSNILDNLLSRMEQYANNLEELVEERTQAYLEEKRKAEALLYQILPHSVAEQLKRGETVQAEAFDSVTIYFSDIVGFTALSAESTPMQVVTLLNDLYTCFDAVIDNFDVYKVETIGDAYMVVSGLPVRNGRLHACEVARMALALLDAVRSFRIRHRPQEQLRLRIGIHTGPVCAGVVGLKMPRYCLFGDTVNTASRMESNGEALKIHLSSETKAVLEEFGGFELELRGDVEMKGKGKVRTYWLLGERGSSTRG

[2] = 600 pmol/kg/min i.v., 60 minutes infusion

dipeptidyl peptidase IV (DPP-IV), sequence (P27487 whole entry): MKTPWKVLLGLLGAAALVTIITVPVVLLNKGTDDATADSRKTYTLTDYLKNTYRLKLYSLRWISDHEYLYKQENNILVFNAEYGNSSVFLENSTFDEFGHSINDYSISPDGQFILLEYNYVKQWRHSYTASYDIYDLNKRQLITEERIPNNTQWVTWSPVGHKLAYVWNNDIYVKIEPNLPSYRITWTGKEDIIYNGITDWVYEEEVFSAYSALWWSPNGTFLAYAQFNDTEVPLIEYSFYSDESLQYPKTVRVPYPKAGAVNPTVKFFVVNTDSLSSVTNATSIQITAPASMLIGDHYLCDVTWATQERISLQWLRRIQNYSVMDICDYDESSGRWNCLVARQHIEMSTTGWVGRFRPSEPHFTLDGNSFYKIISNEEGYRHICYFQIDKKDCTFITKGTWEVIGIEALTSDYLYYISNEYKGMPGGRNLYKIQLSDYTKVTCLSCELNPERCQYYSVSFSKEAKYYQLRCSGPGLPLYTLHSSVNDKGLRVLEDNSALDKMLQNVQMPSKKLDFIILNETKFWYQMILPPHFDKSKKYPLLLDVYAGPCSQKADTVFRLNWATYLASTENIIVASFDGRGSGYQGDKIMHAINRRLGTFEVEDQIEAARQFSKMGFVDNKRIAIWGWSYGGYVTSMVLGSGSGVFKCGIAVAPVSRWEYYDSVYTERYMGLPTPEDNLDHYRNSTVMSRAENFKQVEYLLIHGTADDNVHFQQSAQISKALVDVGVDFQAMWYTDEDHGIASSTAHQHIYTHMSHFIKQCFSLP
neprilysin (NEP), sequence (P08473 whole entry): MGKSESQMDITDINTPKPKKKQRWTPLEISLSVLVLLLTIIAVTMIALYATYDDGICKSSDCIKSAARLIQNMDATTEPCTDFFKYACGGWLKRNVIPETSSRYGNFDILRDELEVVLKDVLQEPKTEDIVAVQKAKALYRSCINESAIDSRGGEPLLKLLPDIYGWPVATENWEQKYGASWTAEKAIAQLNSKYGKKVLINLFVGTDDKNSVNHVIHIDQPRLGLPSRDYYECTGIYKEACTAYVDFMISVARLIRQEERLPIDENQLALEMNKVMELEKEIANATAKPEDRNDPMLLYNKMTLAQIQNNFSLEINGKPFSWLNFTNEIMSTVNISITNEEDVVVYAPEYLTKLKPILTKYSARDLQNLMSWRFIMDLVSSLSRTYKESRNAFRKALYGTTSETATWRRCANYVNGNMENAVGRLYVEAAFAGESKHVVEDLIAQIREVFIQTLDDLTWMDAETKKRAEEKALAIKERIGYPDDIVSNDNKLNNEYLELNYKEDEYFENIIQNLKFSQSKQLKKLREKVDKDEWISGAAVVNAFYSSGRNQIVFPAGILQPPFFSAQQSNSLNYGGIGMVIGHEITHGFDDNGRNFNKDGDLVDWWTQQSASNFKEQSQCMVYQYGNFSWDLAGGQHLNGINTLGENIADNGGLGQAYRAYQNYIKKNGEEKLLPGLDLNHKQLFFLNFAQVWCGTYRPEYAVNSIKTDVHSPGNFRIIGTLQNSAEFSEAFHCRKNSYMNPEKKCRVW

| Molecule | potency, cGMP generated (HTRF) (NPR-A receptor) [nM] | reduction in efficacy, cGMP generated (NPR-A receptor) [%] | increase in efficacy, cGMP generated (NPR-A receptor) [%] | also measured |
| --- | --- | --- | --- | --- |
| CC[C@H](C)[C@@H]1NC(=O)[C@H](CCCNC(=N)N)NC(=O)[C@H](CC(=O)O)NC(=O)[C@H](CCSC)NC(=O)[C@H](CCCNC(=N)N)NC(=O)CNC(=O)CNC(=O)[C@H](Cc2ccccc2)NC(=O)[C@@H](NC(=O)[C@H](CO)NC(=O)[C@H](CO)NC(=O)[C@H](CCCNC(=N)N)NC(=O)[C@H](CCCNC(=N)N)NC(=O)[C@H](CC(C)C)NC(=O)[C@@H](N)CO)CSSC[C@@H](C(=O)N[C@@H](CC(N)=O)C(=O)N[C@@H](CO)C(=O)N[C@@H](Cc2ccccc2)C(=O)N[C@@H](CCCNC(=N)N)C(=O)N[C@@H](Cc2ccc(O)cc2)C(=O)O)NC(=O)CNC(=O)[C@H](CC(C)C)NC(=O)CNC(=O)[C@H](CO[C@H]2O[C@H](CO)[C@H](O)[C@H](O[C@@H]3O[C@H](CO)[C@H](O)[C@H](O[C@]4(C(=O)O)C[C@H](O)[C@@H](NC(C)=O)[C@H]([C@H](O)[C@H](O)CO)O4)[C@H]3O)[C@H]2NC(C)=O)NC(=O)[C@H](CCC(N)=O)NC(=O)[C@H](C)NC(=O)CNC1=O [ANP-Ser19/ST] |  |  |  | change in mean arterial pressure (MAP) over the infusion period (male Sprague Dawley rats; [2]): decrease; change in plasma cGMP over the infusion period (male Sprague Dawley rats; [2]): increase; MAP in the 30 minutes clearance period (male Sprague Dawley rats; after 60 min infusion): sustained or further reduced; effect on diuresis and natriuresis (male Sprague Dawley rats; i.v. infusion): did not result in increased diuresis nor natriuresis |
| CC[C@H](C)[C@H](NC(=O)[C@H](Cc1ccccc1)NC(=O)[C@H](CCC(=O)O)NC(=O)[C@H](CCCCN)NC(=O)[C@H](C)NC(=O)[C@H](C)NC(=O)[C@H](CCC(N)=O)NC(=O)CNC(=O)[C@H](CCC(=O)O)NC(=O)[C@H](CC(C)C)NC(=O)[C@H](Cc1ccc(O)cc1)NC(=O)[C@H](CO)NC(=O)[C@H](CO)NC(=O)[C@@H](NC(=O)[C@H](CC(=O)O)NC(=O)[C@H](CO)NC(=O)[C@@H](NC(=O)[C@H](Cc1ccccc1)NC(=O)[C@@H](NC(=O)CNC(=O)[C@H](CCC(=O)O)NC(=O)[C@H](C)NC(=O)[C@@H](N)Cc1c[nH]cn1)[C@@H](C)O)[C@@H](C)O[C@H]1O[C@H](CO)[C@H](O)[C@H](O[C@@H]2O[C@H](CO)[C@H](O)[C@H](O[C@]3(C(=O)O)C[C@H](O)[C@@H](NC(C)=O)[C@H]([C@H](O)[C@H](O)CO)O3)[C@H]2O)[C@H]1NC(C)=O)C(C)C)C(=O)N[C@@H](C)C(=O)N[C@@H](Cc1c[nH]c2ccccc12)C(=O)N[C@@H](CC(C)C)C(=O)N[C@H](C(=O)N[C@@H](CCCCN)C(=O)NCC(=O)N[C@@H](CCCNC(=N)N)C(N)=O)C(C)C [GLP-1-Thr7/ST] |  |  |  | remained (completely) intact after incubation with NEP (neprilysin (NEP)): 60 min; remained fully intact after/until incubation with DPP-IV [1]: 120 min |
| CC[C@H](C)[C@H](NC(=O)[C@H](CO)NC(=O)[C@H](CC(N)=O)NC(=O)[C@H](CC(C)C)NC(=O)[C@H](Cc1ccc(O)cc1)NC(=O)[C@H](CCCCN)NC(=O)[C@H](CCCCN)NC(=O)[C@@H](NC(=O)[C@H](C)NC(=O)[C@H](CCSC)NC(=O)[C@H](CCC(N)=O)NC(=O)[C@H](CCCCN)NC(=O)[C@H](CCCNC(=N)N)NC(=O)[C@H](CC(C)C)NC(=O)[C@H](CCCNC(=N)N)NC(=O)[C@@H](NC(=O)[C@H](Cc1ccc(O)cc1)NC(=O)[C@H](CC(N)=O)NC(=O)[C@H](CC(=O)O)NC(=O)[C@@H](NC(=O)[C@H](Cc1ccccc1)NC(=O)[C@@H](NC(=O)[C@H](C)NC(=O)[C@H](CC(=O)O)NC(=O)[C@H](CO)NC(=O)[C@@H](N)Cc1c[nH]cn1)C(C)C)[C@@H](C)O[C@H]1O[C@H](CO)[C@H](O)[C@H](O[C@@H]2O[C@H](CO)[C@H](O)[C@H](O[C@]3(C(=O)O)C[C@H](O)[C@@H](NC(C)=O)[C@H]([C@H](O)[C@H](O)CO)O3)[C@H]2O)[C@H]1NC(C)=O)[C@@H](C)O)C(C)C)C(=O)N[C@@H](CC(C)C)C(=O)N[C@@H](CC(N)=O)C(N)=O [VIP-Thr7/ST] |  |  |  | remained (completely) intact after incubation with NEP (neprilysin (NEP)): 60 min; partially intact after incubation with DPP-IV [1]: 60 min; remained fully intact after/until incubation with DPP-IV [1]: 30 min |
| SLRRSSCFGGRMDRIGAQS(ST)GLGCNSFRY (ends and bridges not checked) [ANP with ST O-glycan at residue 19] | 296 | ~20 |  |  |
| SLRRSSCFGGRMDRIGAQS(diST)GLGCNSFRY (not fully specified (bridges); ends and bridges not checked) [ANP with diST O-glycan at residue 19] |  | ~20 |  |  |
| SLRRSSCFGGRMDRIGAQSGLGCNS(diST)FRY (not fully specified (bridges); ends and bridges not checked) [ANP with diST O-glycan at residue 25] |  |  | ~20 |  |
| SLRRSSCFGGRMDRIGAQSGLGCNSFRY (not fully specified (residue 25); ends and bridges not checked) [ANP with one O-glycan (GalNAc/Tn) at residue 25] |  |  | ~20 |  |
| SLRRSSCFGGRMDRIGAQSGLGCNS(ST)FRY (ends and bridges not checked) [ANP with ST O-glycan at residue 25] | 717 |  | ~20 |  |
| SLRRSSCFGGRMDRIGAQS(code T)GLGCNSFRY (ends and bridges not checked) [ANP with T O-glycan at residue 19] | 160 | ~20 |  |  |
| SLRRSSCFGGRMDRIGAQSGLGCNS(code T)FRY (ends and bridges not checked) [ANP with T O-glycan at residue 25] | 265 |  | ~20 |  |
| SLRRSSCFGGRMDRIGAQSGLGCNSFRY (not fully specified (residue 19); ends and bridges not checked) [ANP with one O-glycan (GalNAc/Tn) at residue 19] |  | ~20 |  |  |
